# Laboratory results from the RNAGym collection of RNA variant scans (doi:10.1093/molbev/msab373).
# B1: Azoarcus group I ribozyme (parent)
# chain: GUGCCUUGCGCCGGGAAACCACGCAAGGGAUGGUGUCAAAUUCGGCGAAACCUAAGCGCCCGCCCGGGCGUAUGGCAACGCCGAGCCAAGCUUCGGCGCCUGCGCCGAUGAAGGUGUAGAGACUAGACGGCACCCACCUAAGGCAAACGCUAUGGUGAAGGCAUAGUCCAGGGAGUGGCGAAAGUCACACAAACCGG
# Variants of: B1
# Assay: reverse-splicing fitness (ratio to wild type); higher = more active; in vitro selection; Mg2+ level not given
# Method in brief: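 An in vitro group I ribozyme library with randomized positions was T7-transcribed and gel-purified. In triplicate, 10 pmol RNA in EPPS pH 7.5 was reacted with 50 pmoles of a 30-nt RNA substrate for 1 h at 37 °C across several added MgCl2 levels (1–48 mM), then stopped with EDTA. Products were reverse transcribed from a substrate-complementary primer, PCR-amplified and sequenced (HiSeq 4000). Fitness is a variant's read proportion after selection over that before, normalised to wild type.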
row,Variant,reverse-splicing fitness
1,C82U A111G A120U C169U,0.00493
2,C82U A111G A120U C169G,0.00416
3,C82U A111G A120U C169A,0.00275
4,C82U A111G A120U C150G C169A U176C,0.00364
5,C82U A111G A120U C150G C169A U176A,0.00509
6,C82U A111G A120U C150G C169A U176G,0.00235
7,C82U A111G A120U A145G C150U U176C,0.0134
8,C82U A111G A120U A145G C150U U176A,0.00999
9,C82U A111G A120U A145G C150U U176G,0.00327
10,C82U A111G A145G C150U C169A U176A,0.0161
11,C82U A111G A145G C150U C169A U176G,0.00534
12,C82U A111G A145G C150U C169A U176C,0.0167
13,C82U A111G A120U A145G C169G U176G,0.00169
14,C82U A111G A120U A145G C169G U176A,0.00278
15,C82U A111G A120U A145G C169G U176C,0.00294
16,C82U A111G A145C C150A C169G,0.0066
17,C82U A111G A145C C150A C169A,0.0083
18,C82U A111G A145C C150A C169U,0.00807
19,C82U A111G A145G C150U C169U U176A,0.0132
20,C82U A111G A145G C150U C169U U176C,0.0132
21,C82U A111G A145G C150U C169U U176G,0.005

row,Variant,reverse-splicing fitness
1,C82U A111G A145C C150A C169U U176A,0.0133
2,C82U A111G A145C C150A C169U U176C,0.00672
3,C82U A111G A145C C150A C169U U176G,0.00504
4,C82U A111G A120U A145U C150U U176G,0.00372
5,C82U A111G A120U A145U C150U U176A,0.00763
6,C82U A111G A120U A145U C150U U176C,0.013
7,C82U A111G A145C C169U U176G,0.00386
8,C82U A111G A145C C169U U176A,0.0108
9,C82U A111G A145C C169U U176C,0.00903
10,C82U A111G A120U A145G C150U C169U U176G,0.00238
11,C82U A111G A120U A145G C150U C169U U176A,0.00391
12,C82U A111G A120U A145G C150U C169U U176C,0.00348
13,C82U A111G A145G C150A C169G,0.0093
14,C82U A111G A145G C150A C169A,0.0102
15,C82U A111G A145G C150A C169U,0.01
16,C82U A111G A120U A145U C150U C169U U176A,0.00262
17,C82U A111G A120U A145U C150U C169U U176C,0.00261
18,C82U A111G A120U A145U C150U C169U U176G,0.00192
19,C82U A111G A145U C150A C169G,0.00745
20,C82U A111G A145U C150A C169U,0.0083
21,C82U A111G A145U C150A C169A,0.0078

row,Variant,reverse-splicing fitness
1,C82U A111G A145C C150U U176C,0.0617
2,C82U A111G A145C C150U U176A,0.0454
3,C82U A111G A145C C150U U176G,0.0185
4,C82U A111G A145C C150G C169G U176G,0.0047
5,C82U A111G A145C C150G C169G U176A,0.00777
6,C82U A111G A145C C150G C169G U176C,0.00634
7,C82U A111G A120U A145U C150U C169A U176C,0.0023
8,C82U A111G A120U A145U C150U C169A U176G,0.00165
9,C82U A111G A120U A145U C150U C169A U176A,0.00289
10,C82U A111G A145U C150G C169U U176A,0.00755
11,C82U A111G A145U C150G C169U U176G,0.00472
12,C82U A111G A145U C150G C169U U176C,0.0112
13,C82U A111G A120U A145U C150G C169A U176G,0.00207
14,C82U A111G A120U A145U C150G C169A U176C,0.00216
15,C82U A111G A120U A145U C150G C169A U176A,0.00259
16,C82U A111G A120U C150A C169U U176G,0.00202
17,C82U A111G A120U C150A C169U U176A,0.00577
18,C82U A111G A120U C150A C169U U176C,0.00372
19,C82U A111G A120U A145U C169G U176G,0.00135
20,C82U A111G A120U A145U C169G U176C,0.00255
21,C82U A111G A120U A145U C169G U176A,0.00205

row,Variant,reverse-splicing fitness
1,C82U A111G A120U C150G C169G U176A,0.00513
2,C82U A111G A120U C150G C169G U176C,0.00318
3,C82U A111G A120U C150G C169G U176G,0.0022
4,C82U A111G A120U C150A C169U,0.00325
5,C82U A111G A120U C150A C169G,0.00358
6,C82U A111G A120U C150A C169A,0.00324
7,C82U A111G A120U C150A C169A U176C,0.00313
8,C82U A111G A120U C150A C169A U176A,0.00374
9,C82U A111G A120U C150A C169A U176G,0.00269
10,C82U A111G A145C C150G U176A,0.0112
11,C82U A111G A145C C150G U176C,0.0249
12,C82U A111G A145C C150G U176G,0.00329
13,C82U A111G A145C C169A U176C,0.00406
14,C82U A111G A145C C169A U176G,0.00408
15,C82U A111G A145C C169A U176A,0.00798
16,C82U A111G A120U A145G C169U U176C,0.00362
17,C82U A111G A120U A145G C169U U176G,0.00171
18,C82U A111G A120U A145G C169U U176A,0.00337
19,C82U A111G A145U C150G C169A,0.00869
20,C82U A111G A145U C150G C169U,0.00901
21,C82U A111G A145U C150G C169G,0.00642
